Assay results from patent US10556936B2, “Immunogenic proteins and fragments thereof from allergenic mites” (ALK-ABELLÓ A/S, priority 2016, dated 2020).
Marks after values point to notes of the source that are not given here.

Columns and labels:
[1] = system: HDM specific T-cell lines from HDM allergic donors; test: T cell reactivity of protein: IL-5/IFNg FluoroSPOT or 72 h T cell proliferation in HDM specific T-cell lines (Example 2); format: cell-based, human; details: responding donors of tested HDM allergic donors
From the text: PBMCs from European HDM-allergic individuals were recruited in the Copenhagen region (defined by clinical history of allergy to house dust mite and specific IgE to group 1 and group 2 major allergens from Der p and/or Der f and with measured specific IgE (CAP) >0.7 kU/L towards Der p/f 1 or Der p/f 2. In addition, PBMCs from 10 US HDM-allergic individuals were recruited in San Diego (defined by Der p extract IgE titers greater than 0.35 kUA/L). PBMCs were isolated from whole blood by density gradient centrifugation according to manufacturers' instructions (Ficoll-Hypaque, Amersham Biosciences, Uppsala, Sweden). Der p- and Der f-specific extract IgE titers were determined using the ImmunoCAP system (Thermo Fisher, Uppsala, Sweden). In a separate series of experiments, pooled plasma from 10 European and 10 American HDM atopic individuals from the San Diego region, respectively, was utilized to run 2D immunoblots to elucidate IgE and IgG reactivity towards the proteins, which had at least one peptide with positive T cell response.
T cells reactivity was determined by establishment of HDM specific T-cell lines according to standard methods. In short, PMBCs from HDM allergic donors were cultured for 2-3 weeks in the presence of house dust mite allergen extract. The responses to proteins having SEQ ID NOs 1-44 were assessed by IL-5/IFNg FluoroSPOT (Mabtech FS-0108-10) according manufacturer protocol, (after 2 weeks) or proliferation in a standard 72 h T cell proliferation assay, as described in Henmar H et al., Clin Exp Immunol 2008; 153(3):316-23. (after 3 weeks). In addition these established T cell lines were used for further characterization and epitope mapping.

[2] = system: basophils in whole blood from HDM allergic donors; test: Basophil Activation Test (BAT); format: cell-based, human; details: responding donors of tested HDM allergic donors; whole blood stimulated 1 h
How it was run: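 Basophil activation was read by flow cytometry as increased surface activation markers. The stimulus was a 1 h exposure of blood from 14 HDM-allergic donors to test proteins or major mite allergens at graded concentrations (e.g. 1–1000 ng/ml).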

Row | Molecule | % T cell responding donors to protein [1] | % responding donors in BAT Assay [2]
1 | 37 (protein, listed as Dermatophagoides pteronyssinus) DTPANCTYEDIKGLWLFEETEPIKDRWEKCPEHQQQREKYSKKIFIRLDFPNVAVDKFGNIGEWTMIYNQGFEVKINYRKYFAFSAYERKSENNVLSYCHKTQPGWSHDVLGNNWACYVGHKVNNWNDDDVSKTTTVGAEKFPVKQHSERELYLQNINVEHILSQKHIDHLNSQQKSWKAIVYPDLQSKSIEHLIQMAGGRKSRIINRPKPLRATEQQKQLARSLPESFDWRNLNGIDYVSPVRDQGKCGSCYTFASMAMLESRIRIQTNNTFKPIFSTQEVVDCSEYSQGCDGGFSYLIAGKYAQDFGVIDESCYPYKGVTGKCQNQQNFNQTNEKCKQRTYTIDYKYVGGYFGACNEEAMQIELVQNGPIAVGFEVYGDFFGYSEGIYSHQPSNESNDQHQQIKAEFNPFEMTNHAVLIVGYGKDKKTGEKYWIVKNSWGKQWGMDGYFWMRRGTDECAIESLAMAATPIPN | 4 of 27 | 0 of 8
2 | 31 (protein, listed as Dermatophagoides pteronyssinus) MAKFNYLPVDVQEELRNTANAIVSVGKGILAADESTGTIGKRFADINVENVEQNRQAYRQLLFYSEGIEQYISGVILFDETVYQKDDKGVPFPELLKKKGIIPGIKVDTGVVTLQGTNGESTTQGLDNLTKRCQEYYNQGCRFAKWRCVLKIGQDEPSSLAIVENANVLARYASCCQQARIVPIVEPEILPDGDHNLERCQKVTETVLAAVYKALNDHHVYLEGTLLKPNMVTPGQSCPQKASPQEVAQATVTALQRTVPAAVPGIVFLSGGQSEEEASVNLNAINQYQGKKPWALSFSYGRALQASALRAWQGKPENIGAGQKELLQRAKANVLAHKGQYVAGSIPSLASAKSNFVAQHKY | 6 of 27 | 0 of 8
3 | 40 (protein, listed as Dermatophagoides pteronyssinus) KSAPEGCFRAAVLDHVHQTDARHLSNTAKIIDLNFKVYEDAAALAKKQGADIIVFPENGLIYSILSREKADEFASDIPDAEVNACTLDSKFVYNRLACLAQKHQMFVVADLIDRKSCEELGINNVSDSCPADKKFLFNTAVLFDRQGKLLGRYHKMHLFGEISMNPPPKPELLVIDTELGRLGMQICFDMIFKTPGYLLAQENKFDTMLFPTWWFDESPMLSSSQYQMAWAFGNNVTLLASNIHRIEVGSRGSGIYVGPHRTLAAALYDDSVERLVLANVPIKPKETDQSACPLDSEIIEVPQQIPIPKSVKYHHQNLNLKDVTLLQLSSNESEVHLCHKGVCCQFEYRLAMKDQPQESWVDRVPLLANMLHYLTPEERYYLLIANRTRPGAYPWSEEFCAVVVCPSSRWNFGKMQKDCSKIGSNQELSSRFVHAKLRGKFSEDTAVYPSAVGSKNQLIYPENKWKFWKVNVPNEPEYFIELGAKDNSESRAMELGALVLYGRNYNRDPRYEQKALPIN | 15 of 27 | 0 of 8
4 | 18 (protein, listed as Dermatophagoides pteronyssinus) QSLFVDYNDYSCGSSQNETNELIQEFKIFKKNINGNENFKKINDFIEKARLFRDNAAKQMLEIDQQLLTLNVIQISQRIKLENNKIQCEKLTKFSELLSMQLLAYEVGMFEFAEEIDPNIDFDRKMKNFLDETSRLFNLAEFEKLEKKFRNATSIEKLKNYIDGELVALNDYINEFLKDIIMSEFTVQSRYYLNFSIEDQVQIDSTLMTFSALKILLNDLKDYLEHLDN | 0 of 24 | 
5 | 13 (protein, listed as Dermatophagoides farinae) KKTKDCDVEKPIRECLKNGLLRYSDGQKINQFPDSIEDLNRACEELKKSETCARNFIDTCTETSYEKRSLDSLLDGIQRVLKRLCRSQSKKEQLLQNVGCANSVVQDTKLCLKNYRMLVFAANKLNDKSKIMRILCCKSRKVAPCIGEAMKSKGNAVCSAKNIDYFREMHQNIKAEMTAVVCSDFERDQCENVEVPAITEAEYKDQNIFNPLRDLYKKVILA | 6 of 29 | 0 of 16
6 | 6 (protein, listed as Dermatophagoides pteronyssinus) MVKAVVVLKGDPNVSGTIFFEQQDNGPVKVTGSVQGLKPGLHGFHVHEFGDNTNGCTSAGAHYNPLNKTHGAPNDEERHVGDLGNIEANDKGVANVVIEDSLISLTGEKSIVGRSLVVHADPDDLGRGGHELSKTTGNAGGRLVCGVIGVTK | 0 of 27 | 1 of 8*
7 | 29 (protein, listed as Dermatophagoides pteronyssinus) MVKIGINGFGRIGRLVLRAAIKKGVEVAAINDPFLDVKYMVYMFKFDSTHGRYQGEVKEEGGLLVVDGQKIQVFQERNPAEIPWGKVGADYVVESTGVFTTIEKAKAHLAGGAKKVIISAPSADAPMYVMGVNHDKYDPKQQIISNASCTTNCLAPLAKVINDKFGIENGLMTTVHAITATQKTVDGPSGKLWRDGRGAGQNIIPASTGAAKAVGKVIPELNGKLTGMALRVPVPDVSVVDLTVTLKNPASYDEIKAAVKAAAESDHWKGILEYTDEEVVSSDFISDTHSSIFDAKAGIALTPTFVKLIAWYDNEFGYSNRVVDLIKYVASK | 2 of 27 | 1 of 8*
8 | 3 (protein, listed as Dermatophagoides pteronyssinus) MAIDGKYQMESSEHFEEFVKEMGLDVDMTNVDLSKTSTMEICKDGDVYHIKSETAGIAHEIKFKVGEEFEDDMNGHKFKNVVTMECDNKMVQKKTSADGGKVVNVVREFTDAGCTVKSTYNTVTWTRVYKRM | 1 of 29 | 0 of 16
9 | 38 (protein, listed as Dermatophagoides farinae) QSRDRNDKPYRIVCYWGTWAFYRPASGKFQAENVNPNLCTHIMYGFAKLQNNKIALYDPDLDDGDEDWNSGLQWGHGMIRRMVNLRTYNPHLTTMISLGGWNEGSDKYSIMVRDPASRKIFIQSVLHLLAEFDLDGLDFDWEYPAMQASGDSDRKPGRAEDKEDFVTLLRELHEAFQPHGYVLSSAVSAGKPTIDRAYNIPEVSKYLDFINLMSYDYHGGWESHTGHNAPLNSYKNANELDKEFTVTYSVEYWLNHGVDPKKLVLGIPLYGRTFTLAGSEHGIGAPTIGKGGESGTITRTIGMLGYNEICTMIKQGWQLYRDEIERIPYAVHANQWIGYDDRESVNEKLNLLMAKHLGGAMVWSIDTDDFVGNCVGVKYPLLRSISKKLNNVDGPDPDIKRYHYHTSTAKPHTDGTTSTHHDHKTTTTKHHKTTQPHHKTTQPHHTQTITTTTERPHGKFQCHQAGFFADPENPRKFHQCVDFGGHLKDYEFMCGEGTHYDEKLHICVR | 11 of 27 | 0 of 8
10 | 25 (protein, listed as Dermatophagoides pteronyssinus) MSSSSGKKYDFSGKVALVTGSSSGIGAAIALQFAQYGAQVTITGRDAAALESVAKRIEAESGHQPLQIVGNLLDQSLPAKLIDGTISKYGRLDFLVNNAGFSTQHRDIHDEKLMEAFDQVYGLNVRAVVQLSQLAATHLEKSKGNIINISSNLSMMPVHIIYSSSKAALDMITKTMAMEFGKKGVRVNSINPGPVATQFMRSLGMPVTFLKENEEFVKELTLLKFVAQPVEIANLASFLASDDARNMTGSIVVNDTGSLLAPRVDFKKLDEIKKK | 3 of 26 | 1 of 8*
11 | 33 (protein, listed as Dermatophagoides pteronyssinus) IEQVHIALGSNETEIIVTWTEPHKHDDKTSDAVVYYGQAKSSFDQKVKAISEYFKDDKTKYTTYRALLTGLLPGTEYHYRIQMDDLESSIFEFKTLKTGEENWLPRFAIYGDLGYVNEQSLPYLKKDVEQNLFDVIFHIGDFAYDLNDEHGKVGHHFMRSIEPVASKVAYMTCPGNHERHDNFSHYDSRFSMIGDRSQPIHSDKLNKRLNNHFHSMTIGPATIILFSTEYYYYTKYGWQQIEHQYRWLEQELKRANENRQKHPWIIVMGHRPLYCLKMGDDSCDHQTMERKEIRQGIRMHDEGERQYGLEDLFFKYGVDIQFYGHEHFYARLFPIYKYKMYNGTKSKNPYDHPGAPIHITTGSAGNKELHPEFNHLNDWVAEHFYDYGYTRLMFEDKYRIRLQQISDDQHGKVLDEIEIVKSSPQPHWMNVEHH | 10 of 27 | 1 of 8*
